Test results published in the Immune Epitope Database (IEDB).

How the values were obtained:
Assay in all cases: IEDB peptide-MHC binding, purified MHC/direct/fluorescence; filed as Kd, often an IC50 or EC50 that approximates it; ≥ and ≤ were set here for values at or beyond the usual limits of such assays
Conditions in all cases: source organism: West Nile virus
HLA-B*40:01 = molecular target: HLA-B*40:01
HLA-B*15:01 = molecular target: HLA-B*15:01
HLA-A*26:01 = molecular target: HLA-A*26:01
HLA-A*24:03 = molecular target: HLA-A*24:03
HLA-A*02:01 = molecular target: HLA-A*02:01
HLA-B*08:01 = molecular target: HLA-B*08:01
HLA-B*39:01 = molecular target: HLA-B*39:01
HLA-B*07:02 = molecular target: HLA-B*07:02
HLA-A*03:01 = molecular target: HLA-A*03:01
HLA-B*27:05 = molecular target: HLA-B*27:05
HLA-B*58:01 = molecular target: HLA-B*58:01
HLA-A*01:01 = molecular target: HLA-A*01:01

AEVEEHRTV
Kd (HLA-B*40:01): 130 nM

AMFEEQNQW
Kd (HLA-B*15:01): 17 nM

DTITNVTTM
Kd (HLA-A*26:01): 4 nM

ETTNWLWAF
Kd (HLA-A*26:01): 2 nM

ETTNWLWTF
Kd (HLA-A*26:01): 5 nM

EVMTAVGLM
Kd (HLA-A*26:01): 5 nM

EYVGKTVWF
Kd (HLA-A*24:03): 26 nM

FCIKVLCPY
Kd (HLA-A*26:01): 314 nM

FLAVGGVLL
Kd (HLA-A*02:01): 3 nM

FTRYRKEAI
Kd (HLA-B*08:01): 39 nM

FVDVGVSAL
Kd (HLA-B*39:01): 52 nM

GGRAHRMAL
Kd (HLA-B*07:02): 63 nM

GLYKSAPRR
Kd (HLA-A*03:01): 37 nM

GMSWITQGL
Kd (HLA-A*02:01): ≤ 1 nM

GRGPIRFVL
Kd (HLA-B*39:01): 162 nM

GRLVTVNPF
Kd (HLA-B*27:05): 75 nM

GRMEKKTWK
Kd (HLA-B*27:05): 103 nM

GSRAIWFMW
Kd (HLA-B*58:01): 87 nM

GVIMPNGSY
Kd (HLA-B*15:01): 29 nM

GYISTRVEL
Kd (HLA-A*24:03): 45 nM

HSRRSRRSL
Kd (HLA-B*07:02): 47 nM

HTTKGAALM
Kd (HLA-A*26:01): 23 nM

ILLWEIPDV
Kd (HLA-A*02:01): ≤ 1 nM

ILRNPGYAL
Kd (HLA-B*08:01): 483 nM

IPTAAGKNL
Kd (HLA-B*07:02): 150 nM

ISGKSTDMW
Kd (HLA-B*58:01): 91 nM

ITYTDVLRY
Kd (HLA-A*01:01): 3 nM

KENGVDLSV
Kd (HLA-B*40:01): 3 nM

KIRNRIERL
Kd (HLA-B*08:01): 254 nM

KSFLVHREW
Kd (HLA-B*58:01): 11 nM

KSYAQMWLL
Kd (HLA-B*58:01): 8 nM

KVAAAGVSY
Kd (HLA-B*15:01): 165 nM

LAALGDTAW
Kd (HLA-B*58:01): 66 nM

LAVSAYTPW
Kd (HLA-B*58:01): 11 nM

LLLLVAPAY
Kd (HLA-B*15:01): 87 nM

LLVAPAYSF
Kd (HLA-B*15:01): 137 nM

LMNDPGAPW
Kd (HLA-B*15:01): 40 nM

LRWLVERRF
Kd (HLA-B*27:05): 98 nM

LTYRHKVVK
Kd (HLA-A*03:01): 94 nM

LYAVTTAVL
Kd (HLA-A*24:03): 8 nM

MLRKKQITV
Kd (HLA-B*08:01): 35 nM

MTKEEFTRY
Kd (HLA-A*01:01): 246 nM

MTRGLLGSY
Kd (HLA-A*26:01): 8 nM

MVGVGSLVK
Kd (HLA-A*03:01): 380 nM

NEAKVLELL
Kd (HLA-B*40:01): 28 nM

NEVEVITKL
Kd (HLA-B*40:01): 80 nM

QEGALHQAL
Kd (HLA-B*40:01): 14 nM

QPAFMVASF
Kd (HLA-B*07:02): 71 nM

QTDNQLAVF
Kd (HLA-A*01:01): 168 nM

RAWNSGYEW
Kd (HLA-B*58:01): 16 nM

REDIWCGSL
Kd (HLA-B*40:01): 7 nM

REHSGNEIV
Kd (HLA-B*40:01): ≤ 1 nM

RESFGVESF
Kd (HLA-B*40:01): ≤ 1 nM

REWFMDLNL
Kd (HLA-B*40:01): 9 nM

RFVLALLAF
Kd (HLA-A*24:03): 176 nM

RLARAIIEL
Kd (HLA-A*02:01): 3 nM

RPAADGKTV
Kd (HLA-B*07:02): 97 nM

RPAVGGKTV
Kd (HLA-B*07:02): 36 nM

RRFLEPVGK
Kd (HLA-B*27:05): 50 nM

RRLAATTEK
Kd (HLA-B*27:05): 37 nM

RRSRRSLTV
Kd (HLA-B*27:05): 385 nM

RRWCFDGPR
Kd (HLA-B*27:05): 11 nM

RRYGGGLVR
Kd (HLA-B*27:05): 62 nM

RVIDSRKSV
Kd (HLA-B*07:02): 97 nM

RVLEMVEDW
Kd (HLA-B*58:01): 4 nM

RVYSDHQAL
Kd (HLA-B*07:02): 205 nM

RYLVKTESW
Kd (HLA-A*24:03): 4 nM

SLFGGMSWI
Kd (HLA-A*02:01): ≤ 1 nM

SYHDRRWCF
Kd (HLA-A*24:03): 9 nM

SYTLKLGEY
Kd (HLA-A*24:03): 143 nM

TLARGFPFV
Kd (HLA-A*02:01): 3 nM

TRAVGKPLL
Kd (HLA-B*39:01): 141 nM

TVSPSAPTY
Kd (HLA-B*15:01): 68 nM

TYGVCAKAF
Kd (HLA-A*24:03): 13 nM

VEGLGLQKL
Kd (HLA-B*40:01): 230 nM

VIQLNRKSY
Kd (HLA-B*15:01): 105 nM

VLCPYMPKV
Kd (HLA-A*02:01): 21 nM

VLRKRWTAK
Kd (HLA-A*03:01): 43 nM

VLSLIGLKR
Kd (HLA-A*03:01): 481 nM

VLWDTPSPK
Kd (HLA-A*03:01): 117 nM

VSRLEHQMW
Kd (HLA-B*58:01): 56 nM

VVEKQSGLY
Kd (HLA-A*01:01): 6 nM

WEALDTMYV
Kd (HLA-B*40:01): 27 nM

WFMWLGARF
Kd (HLA-A*24:03): 10 nM

WMILRAISF
Kd (HLA-A*24:03): 120 nM

WYDWQQVPF
Kd (HLA-A*24:03): 7 nM

YQPEREKVY
Kd (HLA-B*15:01): 80 nM

YTMDGEYRL
Kd (HLA-B*39:01): 154 nM
